Measured values published in US20250276077A1, “EPHA2 ANTIBODIES” (Immunome, Inc., priority 2022, published 2025).

Legend:
[1] = biological target: Human EphA2 (ephrin receptor A2), native, in human tumor tissue (human) (UniProt P29317); assay: IF tumor tissue STS, 1 ug/ml
[2] = biological target: Human EphA2 (ephrin receptor A2), native, in human tumor tissue (human) (UniProt P29317); assay: IF tumor tissue STS, 3 ug/ml
[3] = biological target: Human EphA2 (ephrin receptor A2), native, in human tumor tissue (human) (UniProt P29317); assay: IF tumor tissue URO, 1 ug/ml
[4] = biological target: Human EphA2 (ephrin receptor A2), native, in human tumor tissue (human) (UniProt P29317); assay: IF tumor tissue ESO, 10 ug/ml
[5] = biological target: Human EphA2 (ephrin receptor A2), native, in human tumor tissue (human) (UniProt P29317); assay: IF tumor tissue MELA, 3 ug/ml
[6] = biological target: Human EphA2 (ephrin receptor A2), native, in human tumor tissue (human) (UniProt P29317); assay: IF tumor tissue PANC, 1 ug/ml
[7] = biological target: Human EphA2 (ephrin receptor A2), native, in human tumor tissue (human) (UniProt P29317); assay: IF tumor tissue PANC, 3 ug/ml
[8] = biological target: Human EphA2 (ephrin receptor A2), native, in human tumor tissue (human) (UniProt P29317); assay: IF tumor tissue STS, 30 ug/ml
[9] = biological target: Human EphA2 (ephrin receptor A2), native, in human tumor tissue (human) (UniProt P29317); assay: IF tumor tissue URO, 10 ug/ml
[10] = biological target: Human EphA2 (ephrin receptor A2), native, in human tumor tissue (human) (UniProt P29317); assay: IF tumor tissue ESO, 0.3 ug/ml
[11] = biological target: Human EphA2 (ephrin receptor A2), native, in human tumor tissue (human) (UniProt P29317); assay: IF tumor tissue PANC, 10 ug/ml
[12] = biological target: Human EphA2 (ephrin receptor A2), native, in human tumor tissue (human) (UniProt P29317); assay: IF tumor tissue STS, 0.3 ug/ml
[13] = biological target: Human EphA2 (ephrin receptor A2), native, in human tumor tissue (human) (UniProt P29317); assay: IF tumor tissue Uterine, 1 ug/ml
[14] = biological target: Human EphA2 (ephrin receptor A2), native, in human tumor tissue (human) (UniProt P29317); assay: IF tumor tissue NSCLC-SQ, 1 ug/ml
[15] = biological target: Human EphA2 (ephrin receptor A2), native, in human tumor tissue (human) (UniProt P29317); assay: IF tumor tissue NSCLC-SQ, 3 ug/ml
[16] = biological target: Human EphA2 (ephrin receptor A2), native, in human tumor tissue (human) (UniProt P29317); assay: IF tumor tissue Uterine, 30 ug/ml
[17] = biological target: Human EphA2 (ephrin receptor A2), native, in human tumor tissue (human) (UniProt P29317); assay: IF tumor tissue NSCLC-SQ, 10 ug/ml
[18] = biological target: Human EphA2 (ephrin receptor A2), native, in human tumor tissue (human) (UniProt P29317); assay: IF tumor tissue NSCLC-SQ, 30 ug/ml
[19] = biological target: Human EphA2 (ephrin receptor A2), native, in human tumor tissue (human) (UniProt P29317); assay: IF tumor tissue Uterine, 0.3 ug/ml
[20] = biological target: Human EphA2 (ephrin receptor A2), native, in human tumor tissue (human) (UniProt P29317); assay: IF tumor tissue NSCLC-SQ, 0.3 ug/ml
[21] = biological target: Human EphA2 (ephrin receptor A2), native, in human tumor tissue (human) (UniProt P29317); assay: IF tumor tissue NSCLC-Adeno, 10 ug/ml
[22] = biological target: Human EphA2 (ephrin receptor A2), native, in human tumor tissue (human) (UniProt P29317); assay: IF tumor tissue NSCLC-Adeno, 0.3 ug/ml
[23] = biological target: Human EphA2 (ephrin receptor A2), native, in human tumor tissue (human) (UniProt P29317); assay: IF tumor tissue RCC-papillary, 1 ug/ml
[24] = biological target: Human EphA2 (ephrin receptor A2), native, in human tumor tissue (human) (UniProt P29317); assay: IF tumor tissue RCC-papillary, 10 ug/ml
[25] = biological target: Human EphA2 (ephrin receptor A2), native, in human tumor tissue (human) (UniProt P29317); assay: IF tumor tissue RCC-papillary, 0.1 ug/ml
[26] = biological target: C-terminally His-tagged hEphA2-FN2 (Thr437-Asn534+His tag) (human) (UniProt P29317); assay: SPR Biacore T200, 25 C; mIgG2a as immobilized ligand, hEphA2-FN2-His analyte
C-terminally His-tagged hEphA2-FN2 (Thr437-Asn534+His tag) (human), sequence (P29317 437-534 limits assumed): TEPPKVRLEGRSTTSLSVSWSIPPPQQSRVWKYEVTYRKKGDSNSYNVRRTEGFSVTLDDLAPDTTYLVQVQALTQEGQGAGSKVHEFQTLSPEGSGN

Human EphA2 (ephrin receptor A2), native, in human tumor tissue (human), sequence (P29317 25-976): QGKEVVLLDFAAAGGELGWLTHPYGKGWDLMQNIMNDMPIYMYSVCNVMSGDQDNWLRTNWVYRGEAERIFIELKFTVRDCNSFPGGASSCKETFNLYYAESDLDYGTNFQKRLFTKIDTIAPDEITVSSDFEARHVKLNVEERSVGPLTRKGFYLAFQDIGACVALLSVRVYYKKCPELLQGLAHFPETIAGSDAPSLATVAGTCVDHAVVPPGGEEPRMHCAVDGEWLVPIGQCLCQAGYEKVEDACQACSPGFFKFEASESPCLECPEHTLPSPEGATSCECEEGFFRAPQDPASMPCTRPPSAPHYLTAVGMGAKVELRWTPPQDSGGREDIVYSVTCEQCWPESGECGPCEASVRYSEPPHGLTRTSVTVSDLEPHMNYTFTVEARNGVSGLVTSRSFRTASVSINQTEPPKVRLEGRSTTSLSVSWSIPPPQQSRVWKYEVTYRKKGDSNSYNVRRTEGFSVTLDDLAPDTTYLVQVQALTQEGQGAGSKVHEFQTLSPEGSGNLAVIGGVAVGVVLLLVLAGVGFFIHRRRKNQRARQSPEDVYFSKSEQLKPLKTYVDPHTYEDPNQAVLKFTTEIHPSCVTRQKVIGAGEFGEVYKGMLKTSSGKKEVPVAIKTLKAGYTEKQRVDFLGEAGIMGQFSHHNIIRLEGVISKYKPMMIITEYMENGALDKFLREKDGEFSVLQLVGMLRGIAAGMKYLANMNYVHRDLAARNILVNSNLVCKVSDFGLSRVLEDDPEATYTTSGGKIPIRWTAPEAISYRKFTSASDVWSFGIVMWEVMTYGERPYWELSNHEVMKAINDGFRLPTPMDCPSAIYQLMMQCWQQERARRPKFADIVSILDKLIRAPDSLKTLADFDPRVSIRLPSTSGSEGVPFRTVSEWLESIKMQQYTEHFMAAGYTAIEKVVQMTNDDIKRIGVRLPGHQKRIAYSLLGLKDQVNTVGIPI

- tissue reactivity score [1]: 1
- tissue reactivity score [2]: 1
- tissue reactivity score [3]: 2
- tissue reactivity score [4]: 1
- tissue reactivity score [5]: 2
- tissue reactivity score [6]: 2
- tissue reactivity score [7]: 2
- tissue reactivity score [8]: 2
- tissue reactivity score [9]: 2
- tissue reactivity score [10]: 1
- tissue reactivity score [11]: 2
- tissue reactivity score [12]: 1
- tissue reactivity score [13]: 2
- tissue reactivity score [14]: 1
- tissue reactivity score [15]: 1
- tissue reactivity score [16]: 2
- tissue reactivity score [17]: 1
- tissue reactivity score [18]: 2
- tissue reactivity score [19]: 2
- tissue reactivity score [20]: 1
- tissue reactivity score [21]: 1
- tissue reactivity score [22]: 1
- tissue reactivity score [23]: 1
- tissue reactivity score [24]: 2
- tissue reactivity score [25]: 1
- Kd [26]: 4.3 nM
- koff [26]: 0.0021 s⁻¹
- kon [26]: 490000 M⁻¹ s⁻¹
Substance: AB-010018 (mouse monoclonal antibody precursor of DS-8895a; mouse IgG2a format)
